In patent US20060246519A1, “MONOMERIC STREPTAVIDIN MUTEINS” (priority 2005, published 2006):

Legend:
[1] = Dynamic light scattering (hydrodynamic radius, estimated molecular mass); assay type: physicochemical; settings: for M (kDa) (Dynamic light scattering): calculated from measured RH using a protein calibration curve
Experimental: (§1) Molecular mass of purified streptavidin and its muteins was estimated by both gel filtration and dynamic light scattering studies. Gel filtration was performed on the Bio-Rad biologic workstation equipped with a Bio-Prep SE 100/17 column that had been calibrated with molecular mass protein markers (Bio-Rad). Molecular mass was also estimated from the hydrodynamic radius of the mutein obtained using a DynaPro MS dynamic light scattering instrument (Protein Solutions, USA) that had been calibrated with lysozyme. Protein samples (2-3 mg/ml in PBS) were passed through a 0.02 μm filter (Whatman Anodisc 13) immediately prior to measurement. The size distribution profile was analyzed using the manufacturer's Dynamics V6 software.

[2] = system: Biotin-conjugated bovine serum albumin; experiment: Kinetic analysis by surface plasmon resonance BIAcoreX biosensor; assay type: binding; settings: interaction with biotin
Experimental: FIG. 8: Kinetic parameters for the interaction between M4 streptavidin mutein and biotin as monitored by BIAcore biosensor. A. On-rate (ka) determination. ka is derived from association analysis. kd is the slope of the plot of In(Ro/Rt) versus (t−to) where Ro is the response at an arbitrary starting time to; Rt is the response at time t.
The kinetic parameters (both on- and off-rates for interaction with biotin) of streptavidin muteins were determined in real time using the surface plasmon resonance based BIAcoreX biosensor. Biotin-conjugated bovine serum albumin immobilized on CM5 sensor chip was used to study the reversibility of biotin binding (Qureshi, 2001).

Solubility of mutein = assay type: physicochemical; settings: at a concentration of 2 mg/ml
[3] = Cross-linking reactions with sulfo-EGS; assay type: physicochemical; settings: 10-fold molar excess sulfo-EGS, 30 min, room temperature
Experimental: Cross-linking of streptavidin and its muteins was carried out using sulfo-EGS [ethylene glycolbis(sulfosuccinimidyl succinate)] (Pierce) as the cross-linker. A typical reaction mixture (20 μl) contained the purified mutein (0.2 5 mg/ml) and sulfo-EGS (10-fold molar excess over the protein) in PBS. After 30 min at room temperature, the reaction was quenched with Tris-HCl (30 mM, pH 7.5). Aliquots of the cross-linking reaction samples were boiled and examined by SDS-PAGE. Lysozyme (Sigma, 0.25 mg/ml) was included in the study to help establish the optimal reaction conditions.

[4] = Apparent molecular mass by gel filtration (Bio-Prep SE 100/17); assay type: physicochemical
Source text: FIG. 6: Gel filtration profiles of streptavidin muteins. FIG. 6A. […] Bovine gamma-globulin (158 kDa), bovine serum albumin (66 kDa), ovalbumin (44 kDa), myoglobin (17 kDa) and vitamin B-12 (1.35 kDa) were used as molecular mass markers (closed circles) to calibrate the column. The logarithm of molecular mass was plotted versus Kav (Kav=(Ve−Vo)/(Vt−Vo); Ve, elution volume; Vo, void volume; Vt, bed volume). Positions of wild-type streptavidin (wt) and streptavidin muteins are represented by solid squares. FIG. 6B. Elution profile of M4 mutein (loaded at 2 mg/ml) on the gel filtration column.
as §1

[5] = Degree of monomerization of non-boiled samples in SDS-PAGE / Western blot; assay type: physicochemical
Experimental: FIG. 3: Western blot analysis of cell culture supernatants from B. subtilis strains producing streptavidin muteins carrying a single mutation. 15 μl of non-boiled sample of culture supernatant was loaded to each lane. Samples on the left set were collected from B. subtilis strains cultured in super-rich medium without additional supplement of biotin. Samples on the right set were collected from B. subtilis strains cultured in super-rich medium with additional supplementation of biotin (20 μM). The blot was probed with polyclonal antibodies against streptavidin and developed using 4-chloro-1-napthol (Bio-Rad) as the colour development agent. […] M, molecular weight markers; wt, wild type streptavidin.
FIG. 4: Analysis of culture supernatants from B. subtilis strains producing streptavidin muteins carrying different combinations of mutations. All these strains were cultivated in super-rich medium supplemented with biotin (20 μM). The 15 μl of non-boiled samples of culture supernatants were loaded. FIG. 4A. Coomassie blue stained SDS-polyacrylamide gel. […]
Streptavidin muteins carrying a single amino-acid change at the selected site may be produced in their soluble form by B. subtilis via secretion. […] Since biotin can strengthen subunit interaction, samples were analyzed in the presence or absence of biotin (Laitinen, 2001; Gonzalez, 1999). […]

proteinase K = experiment: Proteinase K digestion of streptavidin and its muteins; assay type: biochemical; settings: independent of the presence or absence of biotin; 5 μM proteinase K, 15 min, 30° C.
Experimental: Purified streptavidin and its muteins (30 μM monomer) were treated with proteinase K (Invitrogen, 5 μM) for 15 min at 30° C. in 50 mM Tris-HCl containing 5 mM CaCl2, pH 8.0. The reaction was stopped by precipitation with trichloroacetic acid (Ellison, 1995). Boiled samples of precipitated proteins were resolved by reducing SDS-PAGE. The same analysis was performed with streptavidin samples treated with biotin (1 mM final concentration) prior to proteinase K digestion.

kd, off-rate [2]: 3.39 ± 0.02 × 10^−3 s^−1
B1: M4: monomeric streptavidin quadruple mutant carrying T76R, V125R, V55T and L109T mutations (protein)
chain: MNIKKFAKQATVLTFTTALLAGGATQAFADPSKDSKAQVSAAEAGITGTWYNQLGSTFIVTAGADGALTGTYESAVGNAESRYTLTGRYDSAPATDGSGTALGWRVAWKNNYRNAHSATTWSGQYVGGAEARINTQWTLTSGTTEANAWKSTLRGHDTFTKVKPSAASIDAAKKAGVNNGNPLDAVQQ
modifications: Amino acid sequence for secretory production of streptavidin M4 in B. subtilis
notes: monomeric streptavidin quadruple mutant carrying T76R, V125R, V55T and L109T mutations
RH (nm) (Dynamic light scattering) ([1]; +biotin): 2.20 ± 0.14 nm | M (kDa) (Dynamic light scattering) ([1]; +biotin): 21.5 kDa | RH (nm) (Dynamic light scattering) ([1]; no biotin): 2.08 ± 0.31 nm | M (kDa) (Dynamic light scattering) ([1]; no biotin): 18.1 kDa | ka, on-rate [2]: 1.80 ± 0.04 × 10^4 M^−1s^−1 | solubility (Solubility of mutein): excellent solubility | Oligomeric state after cross-linking with sulfo-EGS (SDS-PAGE) [3]: migrated as monomers | M (kDa) (Gel filtration) ([4]; +biotin): 24.54 kDa | M (kDa) (Gel filtration) ([4]; no biotin): 21.87 kDa | Monomer (percentage of streptavidin in monomeric state) ([5]; No additional biotin): 100% | Monomer (percentage of streptavidin in monomeric state) ([5]; With additional biotin (20 μM)): 100% | Susceptibility to proteinase K digestion (proteinase K): completely digested
